Laboratory results published in US12077763B2, “RNA-based control of powdery mildew” (Greenlight Biosciences, Inc., priority 2021, dated 2024).

Test system: E. necator
Assay: Leaf disc assay, dry inoculum (settling tower), decrease in disease severity / hyphal growth (Example 2)
Settings: decrease in disease severity (hyphal growth) relative to untreated control, value ± SE; for % decrease =/− SE TP1: time point 1 (untreated control hyphal growth ≥50%); for % decrease =/− SE TP2: time point 2

B1: GS1856: dsRNA trigger SEQ ID NO 214; gene target Zinc finger and SCAN domain-containing protein 20 (nucleic acid)
chain: GACCATTGTGGTCTTTCGACAAAATGATTTCAAACAGCCCTCGTGTGCACATTTGTATGGTCTTTTTCCTGTATGAATACGACGATGACGAGCCAGACTAGATGAATCAGAGAATCGTTTCCCACAACCAAGATGCTGGCATTGATGTGGCTTTTCGCCAGTGTGTGTTCGAATGTGCACAGTTAAGGCACTTCTTTGAATGAAACTTTTTCCACATCCAGGCTGCATGCATGAATATGGCCGTTCGTTGGTATGTATTCGATAGTGGCGTTGAAGGTCAGACTTCCTGTTGAAACTCTTGTGACATGTCTGCCAATCACACTGAAATGGTCTCGCATTAGGTTCGTTTTCAACGAGCTCCATTACATCCATAGTGAACCGACAAGTAGTGTCGAATGTATGCAATGTCGGAGAAGTTAAGGGTTGGACAAGAGGTACCGCAGCAAAAGCTGCAGGTGTGGTGATTAGGTGGGGATGGGTGTCGAATATATAAGATTGCGATTCTCTATTTAAAGAAAAAAGAAATATAAGCAAAATAAAATATTTCTTTTGA
- % decrease =/− SE TP1: 1 ± 7%
- % decrease =/− SE TP2: 6 ± 8%

B2: GS1848: dsRNA trigger SEQ ID NO 134; gene target ADP-ribosylation factor-like protein 3 (nucleic acid)
chain: CACCGCCCATAGCTCCTTCAAAAACGTGTTTGACAAATCCCTCTTTGATTCGTACCACTTCAACGCAATCTTCACGATCTTGCTTATTTGCTAATATCAACAATGGTACACCGTCAATTTCTCCATTGACCAAGACTTCCTCCAGAGCCAATCGACACTCTTCAAGGCGACCCGACTCATCATGCTCCAAATCTCCATCACCAATCTCAGTGCTATCAATGAGGAAAATAATGGCGTGGCATGATCGATAGTAAGATTTCCATAGTTTGCGAAGAGATTCCTGACCACCTACATCCCAAAGCTTAAGGTACATGTCAGGCAGCGTAATAGTGCTCACATTTTGTCCGACTGTAGGTCCCGTATTTATTTTGGGTGCAGGCGCATGAGGCAGGAACAGGAATTTAACTTGTTCGTGAAAAGTTGTCTTGCCGGCGTTATCAAGTCCCAGCAAAAGAACCGAGTATTCTTCTTTGCGCGTTGCGTAGTGGTAGAGACCCTTAACCAAATGATACATGTAGGTTTAGATCTACATAAATGGAGAAAGAAATCTTAATTAGAATGG
- % decrease =/− SE TP1: 18 ± 8%
- % decrease =/− SE TP2: 7 ± 8%

B3: GS1852: dsRNA trigger SEQ ID NO 202; gene target PA-phosphatase related-family protein DDB_G0275547 (nucleic acid)
chain: TTCTCTTAGGGACGGTTGGCATCATTATTAATTTTGCAGAACCAATTCCATCTCGATCTTTTCCGATTTATTCTCAAAATGGAGATATTGTTTATCCTCAATTTGCATATCCTCTTCGCAAGAATATCATTCCAATTTGGGTAGCAATTTTGTTGGCTTCACTTATTCCTTTGCTCATCATTTTCCTTACACAATTTCGTATTCGCTCGTTTTGGGATGCAAACAACGCGATTACAGGGCTATTATACTCCCTTATTATCGCCGGAGTGTTTCAAGTCTTCTTAAAGTGGTTAATTGGAGGGCTGAGACCTCATTTTCTAACCGTCTGTGAGCCAATAATTCCAACACGTGCTCCAATAAAGGCTAGATATGGGCCTAGAATAATAATGTACGACAGAAATGTCTGCACTGGCGACAAAAGGCAGATCAATAATTCTCTTGAATCATTCCCTTCAAGCCAATCGACTGTAGCATTTTCTGGTTTCGTTTATTTGGCTATATACCTGAATGCAAAACTTAAAATTTGGTCTAATTACCATTCTGCCATGTGGAAGAT
- % decrease =/− SE TP1: 22 ± 4%

B4: GS1850: dsRNA trigger SEQ ID NO 198; gene target Ubiquitin-conjugating enzyme E2-34 kDa (nucleic acid)
chain: TCGTCATCCTCGTCTTGTTCAAAATCATAGTTATCATCGTCTGAGCTCTCGCTGGTACCGAACTCATCCTGATCATCACTCTCGTTCCAGAAATCATCGTCATCATTAATTTGCGGAGGAGGCGCCTCAATTAATGTTTTTGGCATCACAAAACCCTCCGGTATATCTCTCATAGAAATTCTTACTGTCTCCAAAGCCCGCTGTTTGTAAGCCTCCAGGTTATCCCGATACATAACGCTGGCATCAACATTTGCAGGGGAGGTAATCTCAGGGTCATCTAGTAAGAGAAGAATAGAGCGGAGAACACTTTCAACACTCTGAATTGATGACCAGCGCTCACAAGCAAGCTCTCCAGATTGTTCATCATCTCCAGCAGCGTGTAGTATTGAGATGCAAACCCTGCCATCAGGATATATATTTGGATGGTAAATAGGTTGCAAGAATTTGAAGGTCGGAGGAGCATAAGGATATTTATCAGTAAAACCCATTTCAGCCTTAAAATAAGCCCCATCGAAAGCACTTTCTGGGTTGACTACTATTAGAGCGATTAACCACTTGAA
- % decrease =/− SE TP1: 13 ± 6%
- % decrease =/− SE TP2: 0 ± 6%

B5: GS1849: dsRNA trigger SEQ ID NO 143; gene target Chitin synthase 8 (nucleic acid)
chain: TTGAGAAGCAGCCAACCATGTATTAACAACTAAGCTAGTGCTTGCATCAAGTTTATATGATTGCGTAGACGTGTAAGCAGTATGGATTGAGTTTAGGAGAGTAGTCGATGAGACTTGCGCTGGAGGTTGAGAAGTAGAATTGTTATTTCGAACACCTCCATACGCTGAAGAGGTAGTTGAATAGATAGACATCCGGTGAGTTCCAGTCATTTTATGAAGAGTGATCGAGTTTTTAGACCTTTCCACGTATGGATATTTAAGGTATGTAAATGAGTCAATTCAAAGTCACAAGATTCTCGATCAGTCGATTGATTGGCTTATTGACAATATTCTTTAGCCGAAATCTTAGACAATGGCTTGACAGAATTAATGTCTGGTCTTCGAAGTATCCAGTTGGTGTGTAGCAGATAACTTCGGTATAGTTGTAGAAATGGAAAACAAACCGCAAAAGACAGTCTTGTATCGACCGTGAGGCCGACAGTAGGAGAAATTCAATGCTATTGAGAAATTGAACAACCAAAAAGCGAAAGTAGGGTAACAAGTTTCGACTCACAGACCTA
- % decrease =/− SE TP2: 5 ± 8%

B6: GS1855: dsRNA trigger SEQ ID NO 212; gene target Golgi apyrase (nucleic acid)
chain: TAACACCCGCAGTTGCCATCAGAAAGAAGGGAGTATCTTTAACTTGATTCTCAGGTACAATACTCAATGCATGATCTAGTAAGCTTTGAAGATGTTCAGGACCAATATCTGTTATGCGATCGGCAAAGGAAGAGACGCCGGGTTTGATTTTTTTTGAATATCCAGGTTTAGTGTGTAACTGAGGTAGTTGGTTCAATTGAATCTCATTTTTTGCATCGTAACGAGCTCGAGATGTATTGAGCCACCGGTAGACGTGGACTCGAGTCCCTGACGAGCCCGCGTCTAAGATAACCCCCCATCGCCATTTACCCATAAGTAGCCTATCGTTACGGTTTGGCGATGCCGGTCTAGGATATGTGCTTCAATATCAAAAATAATCCGTGAAGCGTTACAAAAACATGAGTCAATTATACGGAATTTGAAACGAGTGTGAAAGGAAGTCGGCAGACTCAAAAATAAAAAAGAAAGATAATAATTCGAATTTGAATGAGAATGAGTAGTGGTCGGATAAGATGTTTAATGCTAAGTGCTAAGATAACTGACTAAGACTTGAT
- % decrease =/− SE TP1: 26 ± 4%
- % decrease =/− SE TP2: 10 ± 6%

B7: GS1845: dsRNA trigger SEQ ID NO 191; gene target Singe-stranded TG1-3 DNA-binding protein (nucleic acid)
chain: CAGATACTGCCCAAACTACCTTCATAATTTTCCGAGCTACACACCAGAACCTCGAGTATTGACATTACGGAATCATCTCACCATTTAAAAGTTGCGGTTTAACTTAAGCTGTAGCCGCAACAGTTTCAGCTGTCCCAGCTAGTCCTTCTGATTGAAGTTTATCATTAGTAATCCCTTTAGCGATGGCGCCATTAGTACCTTCGGTTGAGTTGCCAACATTAGATACTTCGCCAGCACCATCAGATACATGTGTAGTTAATTCTTCAGAGGTCTTGTCCGGACTATCTATTGCGATCTTTACTGCAATCTCACGACCTTGAACTTCTTTTCCATTCATTTCGGCAACAGCCCTATTTTGAAGTTCATTAGATGCTAAGTTCACAAAGCCAAACCCACGGCCTTTCCGAGGTTCGTTGCGGGCCTGAAGCTTTTTAACCATGAATTTTGGAATAGGACGCAGAGCAATTTTGGCAGATACTGGTTCGTAATCGGCAAATAGTTCCTTTAACTTTTCCTCGGATAAGTCATAAGGAAGATTGGCAACCATAACTTTTGTCTTAGATGGAAC
- % decrease =/− SE TP1: 23 ± 6%
- % decrease =/− SE TP2: 24 ± 6%

B8: GS1853: dsRNA trigger SEQ ID NO 204; gene target Uncharacterized WD repeat-containing protein C17D11.16 (nucleic acid)
chain: CGGACTTCTTGGTCAGGCGCAAAAGAAGTTGAAAATACCTTTCCAACTTCCAAATCTCTGGACACTATCATTGAGGGGCCCGATGGCTGAATATTCCACAGTTTTACGAGTTTATCAGAAGACCCTGTGGCCATAAACCCGGGAATGATAGGATTAATATCAAAAGCACAAACTGATTTGTCATGTGCTTGCAATAACCAAACTGGCTTACTAGAACTGGGAGTAGATGGTGCCATTCGTATATCGTGATAATGGACCATACCACCTTCTGTCGTTACGTAAAAGAAATTTGGGTTGTGTGCATCCCATTTGACAGCTTCTACATCACTTTCTACACCCCAAATCGGCACTTTGGATTCTGGTGCTCTCATGTCGGCCGCTACGACACTCCGATCATAACTTCCACTAAGTAAGACAGTGGAGTCAACAGGATGCCATTGTATTGAGCAAACTTTATCTGAATGATTACTATATGATTTAGCACATTTATTAGTATTAAGGTCCCATAGTTTGACAGTCTTGTCGGCGGAAGAAGAGGCAAGTAAATTTTGGTGTT
- % decrease =/− SE TP1: 14 ± 6%
- % decrease =/− SE TP2: 0 ± 5%

B9: GS1846: dsRNA trigger SEQ ID NO 135; gene target Calcium-transporting ATPase 2 (nucleic acid)
chain: AGACCTTCGGGTACTGCTACAACAATTACAGTGACTGTCACAATGAAAATTTGCAGAAATTGCTGACCTTTAACGGTTGGTGTAGCATCATTGTTAGGTAGTCTAGCCAGAAACTCAATGAATAAGACTGTAAATAATAATAGACCAGCTCCTCCTCCAAGTTTAGCTATATACTCTGCTAAATTGTTCAATTTTGACTGTAATGGCGTGATTTCCGGATCTTCACGGAGCGACATTAATGTTTTCCCATAACTAGAGTTTACACCAGTTGAAGTAACTAAAAATGTACCCACACCTTCAGTGACAGTAGCCCCAGACAAAATAAATGGATCTAATTTTTCTAGCTTTTCGTGGTTCGAGATAGCAGCATAAACTTGGTCTGCCGGATGCTTGCGAATAATATCGGACTCGCCAGTTATTTGAGACTCATCACATCTAAGATTATGCCCTCCAATAAAAATTCCATCAACAGGAATCATGTCGCCAGGTTCAAGATGTAAAACATCGCCTACAAGAACATCATAGATGGATATTTCCGAAGTTTTCCCGGAACGAGTCACATTTACAT
- % decrease =/− SE TP1: 22 ± 5%
